From publication PMC6098246, “Zinc(II) binding on human wild-type ISCU and Met140 variants modulates NFS1 desulfurase activity” (Biochimie, 2018)
Changes are numbered by the printed parent chain. Numbers in names are those of the source.

B1: biotinylated human ISCU wild-type (Δ1-34) (natural protein, UniProt Q9H1K1 35-167, looked up)
chain: YHKKVVDHYENPRNVGSLDKTSKNVGTGLVGAPACGDVMKLQIQVDEKGKIVDARFKTFGCGSAIASSSLATEWVKGKTVEEALTIKNTDIAKELCLPPVKLHCSMLAEDAIKAALADYKLKQEPKKGEAEKK
modifications: biotin (site not stated)
notes: human ISCU, construct Δ1-34 of the 167-aa precursor (133-aa mature protein without the mitochondrial signal peptide); the two conditions are two assays; Measured mass of the apo-protein 14604 Da; also called ISCUWT; WT; source: E. coli BL21 (DE3)-R3-pRARE2, purified (Ni Sepharose, Superdex S75, His-tag removed by TEV)
B2: biotinylated human ISCU M140I (Δ1-34) (natural protein, UniProt Q9H1K1 35-167, looked up)
chain: B1 chain with M106I
modifications: biotin (site not stated)
notes: human ISCU, construct Δ1-34 of the 167-aa precursor, variant M140I; source: E. coli BL21 (DE3)-R3-pRARE2, purified (Ni Sepharose, Superdex S75, His-tag removed by TEV)
B3: biotinylated human ISCU M140V (Δ1-34) (natural protein, UniProt Q9H1K1 35-167, looked up)
chain: B1 chain with M106V
modifications: biotin (site not stated)
notes: human ISCU, construct Δ1-34 of the 167-aa precursor, variant M140V; source: E. coli BL21 (DE3)-R3-pRARE2, purified (Ni Sepharose, Superdex S75, His-tag removed by TEV)
B4: biotinylated human ISCU M140L (Δ1-34) (natural protein, UniProt Q9H1K1 35-167, looked up)
chain: B1 chain with M106L
modifications: biotin (site not stated)
notes: human ISCU, construct Δ1-34 of the 167-aa precursor, variant M140L; source: E. coli BL21 (DE3)-R3-pRARE2, purified (Ni Sepharose, Superdex S75, His-tag removed by TEV)

How the values were obtained:
[1] = target: T1, NFS1-ISD11-ACP (SDA) complex (human | E. coli, UniProt Q9Y697 56-457; Q9HD34 1-91; P0A6A8 1-78); test: BLI; biotinylated ISCU on streptavidin sensors, SDA 10 uM to 1.56 nM in solution; 25 °C; 50 mM HEPES pH 7.5, 200 mM NaCl, 5% glycerol, 2 mM TCEP, 5 mM DTT, 0.5 mg/mL BSA, with 300 uM EDTA (zinc-depleted ISCU); Kd from response vs. [NFS1], one site-specific binding fit; details: both partners purified
T1 construct: human cysteine desulfurase NFS1, non-tagged, construct Δ1-55; human ISD11 (LYRM4), His-tagged; E. coli acyl carrier protein (ACP) of the expression host, co-purified with NFS1-ISD11; PLP was added during the purification; also called NFS1-ISD11-ACP desulfurase complex; NFS1-ISD11 complex; source: co-purified with E. coli ACP; copies: + +
T1 sequence (Q9Y697 56-457, chain 1 of 3): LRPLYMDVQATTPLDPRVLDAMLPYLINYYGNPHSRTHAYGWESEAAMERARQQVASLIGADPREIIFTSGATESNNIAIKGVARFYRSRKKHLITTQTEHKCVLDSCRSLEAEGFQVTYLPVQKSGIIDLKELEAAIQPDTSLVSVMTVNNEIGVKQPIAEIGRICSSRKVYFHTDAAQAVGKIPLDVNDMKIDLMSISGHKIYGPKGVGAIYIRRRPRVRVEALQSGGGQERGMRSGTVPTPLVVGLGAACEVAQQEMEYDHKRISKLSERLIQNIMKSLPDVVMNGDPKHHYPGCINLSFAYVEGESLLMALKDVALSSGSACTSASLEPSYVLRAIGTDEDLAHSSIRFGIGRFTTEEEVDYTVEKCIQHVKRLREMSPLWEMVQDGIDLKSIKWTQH
T1 sequence (Q9HD34 whole entry, chain 2 of 3): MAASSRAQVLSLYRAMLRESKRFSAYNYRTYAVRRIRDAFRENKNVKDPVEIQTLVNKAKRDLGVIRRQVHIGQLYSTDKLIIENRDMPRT
T1 sequence (P0A6A8 whole entry, chain 3 of 3): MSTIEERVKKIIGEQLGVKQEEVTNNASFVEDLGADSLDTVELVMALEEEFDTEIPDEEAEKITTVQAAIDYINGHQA

[2] = target: T1, NFS1-ISD11-ACP (SDA) complex; test: BLI; biotinylated ISCU on streptavidin sensors, SDA 10 uM to 1.56 nM in solution; 25 °C; 50 mM HEPES pH 7.5, 200 mM NaCl, 5% glycerol, 2 mM TCEP, 5 mM DTT, 0.5 mg/mL BSA, with 100 uM ZnCl2 (zinc-bound ISCU); Kd from response vs. [NFS1], one site-specific binding fit; details: both partners purified

Row | Binder | Kd [1] | Kd [2]
1 | B1 | 87.8 nM | 160 nM
2 | B2 | 97.3 nM | 194 nM
3 | B3 | 85.5 nM | 218 nM
4 | B4 | 110 nM | 181 nM
